Test results as given in paper PMC11966780.

What was measured:
Test in all cases: label-free LC-MS/MS
[1] = biological target: AAV-DJ capsid incorporating VP3 with the ALFAnb inserted at position H631 (AAV-DJ | not stated)
[2] = biological target: AAV-DJ capsid incorporating VP3 with a GFPnb inserted at position H631 (AAV-DJ | not stated)
[3] = biological target: AAV-DJ capsid incorporating VP1 with a GFPnb inserted at position H631 (AAV-DJ | not stated)

| Substance | GFP/capsid (GFP-NLS-ALFA proteins per capsid) [1] | GFP/capsid, Rep1 [1] [GFP/capsid] | GFP/capsid, Rep3 [1] [GFP/capsid] | GFP/capsid, avg [1] [GFP/capsid] | GFP/capsid (GFP-NLS per capsid) [2] | GFP/capsid, Rep1 [2] [GFP/capsid] | GFP/capsid, Rep2 [2] [GFP/capsid] | GFP/capsid, Rep3 [2] [GFP/capsid] | GFP/capsid (GFP-NLS per capsid) [3] | GFP/capsid, Rep1 [3] [GFP/capsid] | GFP/capsid, Rep2 [3] [GFP/capsid] | GFP/capsid, Rep3 [3] [GFP/capsid] | GFP/capsid, avg [3] [GFP/capsid] |
| --- | --- | --- | --- | --- | --- | --- | --- | --- | --- | --- | --- | --- | --- |
| GFP C-terminally tagged with a c-Myc NLS followed by the ALFA tag | 1 to 9 | 8.63 | 0.3 | 3.35 |  |  |  |  |  |  |  |  |  |
| GFP tagged with a c-Myc NLS at the C-terminus |  |  |  |  | 3 to 15 | 13.1 | 2.17 | 1.35 | 1 to 3 | 0.89 | 2.27 | 0.81 | 1.33 |
| green fluorescent protein (GFP) (from UniProt P42212 1-238) (natural protein) |  |  |  |  |  |  |  |  |  | 0.89 | 0.73 | 0.33 | 0.65 |
